Measurements from patent US20240116985A1 (published 2024).
Starred links: 1 amine or outer side, 2 acyl side, 3 side chain; linkers in the order of their positions; H or OH if unused. Positions of bridges follow the written chain, without caps; N, C: chain ends. Non-standard residues stand in square brackets, D forms with d. Primed or numbered codes have the meaning given here. *: point of attachment. PyrS2″ = (S)-3-amino-1-((pent-4-en-1-yloxy)carbonyl)pyrrolidine-3-carboxylic acid (stapling residue), C=CCCCOC(=O)N1CC[C@@](N[*:1])(C(=O)[*:2])C1; B5(4) = 2,2-bis(4-pentenyl)glycine = 2-amino-2-(pent-4-en-1-yl)hept-6-enoic acid (stitching residue), C=CCCCC(CCCC=C)(N[*:1])C(=O)[*:2]; B5(5) = 2,2-bis(4-pentenyl)glycine, 2-amino-2-(pent-4-en-1-yl)hept-6-enoic acid (stitching residue), C=CCCCC(CCCC=C)(N[*:1])C(=O)[*:2]; B5(21) = 2-amino-2-(pent-4-en-1-yl)hept-6-enoic acid, bis(4-pentenyl)glycine (stitching residue), C=CCCCC(CCCC=C)(N[*:1])C(=O)[*:2]; Phe(3-COOH) = N[C@@H](Cc1cccc(C(=O)O)c1)C(=O)O; Phe(2-CF3) = N[C@@H](Cc1ccccc1C(F)(F)F)C(=O)O; 2Nal = N[C@@H](Cc1ccc2ccccc2c1)C(=O)O; Bta = N[C@@H](Cc1csc2ccccc12)C(=O)O; Lys(iPr) = CC(C)NCCCC[C@H](N)C(=O)O; αAllylPro = C=CC[C@@]1(C(=O)O)CCCN1; tBuAla = CC(C)(C)C[C@H](N)C(=O)O; 3Thi = N[C@@H](Cc1ccsc1)C(=O)O; Cha = N[C@@H](CC1CCCCC1)C(=O)O; iPr = CC(C)*

T1: full-length beta-Catenin (Uniprot ID P35222) (Homo sapiens (Human), UniProt P35222 2-781)
T1 construct: full-length beta-Catenin (Uniprot ID P35222); also called bCat; B-Catenin
T1 sequence: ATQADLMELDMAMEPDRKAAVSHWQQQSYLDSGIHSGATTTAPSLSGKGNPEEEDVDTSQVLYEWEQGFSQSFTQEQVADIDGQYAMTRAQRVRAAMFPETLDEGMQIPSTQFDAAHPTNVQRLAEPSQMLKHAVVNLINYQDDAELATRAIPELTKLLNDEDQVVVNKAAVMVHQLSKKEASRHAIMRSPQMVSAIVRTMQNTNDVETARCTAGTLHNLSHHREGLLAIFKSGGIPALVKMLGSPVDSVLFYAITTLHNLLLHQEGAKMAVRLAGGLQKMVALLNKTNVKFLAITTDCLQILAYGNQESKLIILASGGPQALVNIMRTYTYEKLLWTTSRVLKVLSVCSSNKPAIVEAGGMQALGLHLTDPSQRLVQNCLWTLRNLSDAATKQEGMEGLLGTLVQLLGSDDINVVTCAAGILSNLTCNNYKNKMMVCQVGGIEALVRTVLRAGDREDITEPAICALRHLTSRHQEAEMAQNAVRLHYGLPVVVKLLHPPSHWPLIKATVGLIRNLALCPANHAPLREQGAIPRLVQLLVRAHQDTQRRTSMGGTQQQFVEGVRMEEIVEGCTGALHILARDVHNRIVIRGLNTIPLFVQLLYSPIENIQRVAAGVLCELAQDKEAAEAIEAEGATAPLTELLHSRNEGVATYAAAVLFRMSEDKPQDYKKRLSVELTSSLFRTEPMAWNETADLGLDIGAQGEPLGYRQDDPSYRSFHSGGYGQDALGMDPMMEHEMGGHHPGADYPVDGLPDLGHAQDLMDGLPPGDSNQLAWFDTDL

T2: B-cat-Halo (beta-catenin HaloTag fusion expressed in HEK293 cells) (Homo sapiens (Human), UniProt P35222 1-781)
T2 sequence: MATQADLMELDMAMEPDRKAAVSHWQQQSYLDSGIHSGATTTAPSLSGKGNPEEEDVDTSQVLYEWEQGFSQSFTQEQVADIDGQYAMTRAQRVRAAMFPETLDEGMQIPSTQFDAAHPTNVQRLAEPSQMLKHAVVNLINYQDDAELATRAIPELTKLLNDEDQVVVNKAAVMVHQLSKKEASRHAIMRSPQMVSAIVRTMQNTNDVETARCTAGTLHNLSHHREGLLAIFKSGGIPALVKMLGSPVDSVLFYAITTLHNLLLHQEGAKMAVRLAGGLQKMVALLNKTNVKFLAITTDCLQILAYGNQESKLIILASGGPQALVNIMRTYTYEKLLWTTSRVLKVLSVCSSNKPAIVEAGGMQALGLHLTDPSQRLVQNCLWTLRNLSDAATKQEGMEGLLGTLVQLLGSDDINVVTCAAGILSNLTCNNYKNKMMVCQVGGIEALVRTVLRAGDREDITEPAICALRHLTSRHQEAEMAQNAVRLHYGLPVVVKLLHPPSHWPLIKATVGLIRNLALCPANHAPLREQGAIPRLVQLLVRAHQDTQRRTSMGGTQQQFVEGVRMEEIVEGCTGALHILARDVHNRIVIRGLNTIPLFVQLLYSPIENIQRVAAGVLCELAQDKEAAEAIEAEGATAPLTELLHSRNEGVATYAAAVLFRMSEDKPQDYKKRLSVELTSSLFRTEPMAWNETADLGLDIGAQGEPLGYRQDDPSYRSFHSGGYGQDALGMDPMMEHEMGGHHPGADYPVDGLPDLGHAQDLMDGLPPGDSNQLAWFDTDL

B1: I-1379 (peptide)
peptide: Ac-[αAllylPro]DA[B5(4)]NQ[Lys(iPr)]AFL[PyrS2″]F[Bta]Q-NH2
modifications: staple 1-4, 4-11
notes: also called Ac-PL3-Asp-Ala-B5-Asn-Gln-iPrLys-Ala-Phe-Leu-PyrS2-Phe-BztA-Gln-NH2
B2: I-1380 (peptide)
peptide: Ac-[αAllylPro]DA[B5(4)]NK[Lys(iPr)]AFL[PyrS2″]F[Bta]Q-NH2
modifications: staple 1-4, 4-11
notes: also called Ac-PL3-Asp-Ala-B5-Asn-Lys-iPrLys-Ala-Phe-Leu-PyrS2-Phe-BztA-Gln-NH2
B3: I-1381 (peptide)
peptide: Ac-[αAllylPro]DA[B5(4)]NT[Lys(iPr)]AFL[PyrS2″]F[2Nal]Q-NH2
modifications: staple 1-4, 4-11
notes: also called Ac-PL3-Asp-Ala-B5-Asn-Thr-iPrLys-Ala-Phe-Leu-PyrS2-Phe-2NapA-Gln-NH2
B4: I-1387 (peptide)
peptide: Ac-[αAllylPro]NA[B5(21)]DTK(iPr)AFL[PyrS2″]F[2Nal]Q-NH2
modifications: staple 1-4, 4-11
notes: also called Ac-PL3-Asn-Ala-B5-Asp-Thr-iPrLys-Ala-Phe-Leu-PyrS2-Phe-2NapA-Gln-NH2
B5: I-1382 (peptide)
peptide: Ac-[αAllylPro]NA[B5(4)]DT[Lys(iPr)]AFL[PyrS2″]F[Bta]Q-NH2
modifications: staple 1-4, 4-11
notes: also called Ac-PL3-Asn-Ala-B5-Asp-Thr-iPrLys-Ala-Phe-Leu-PyrS2-Phe-BztA-Gln-NH2
B6: I-1385 (peptide)
peptide: Ac-[αAllylPro]NA[B5(21)]DQK(iPr)AFL[PyrS2″]F[Bta]Q-NH2
modifications: staple 1-4, 4-11
notes: also called Ac-PL3-Asn-Ala-B5-Asp-Gln-iPrLys-Ala-Phe-Leu-PyrS2-Phe-BztA-Gln-NH2
B7: I-1386 (peptide)
peptide: Ac-[αAllylPro]NA[B5(21)]DKK(iPr)AFL[PyrS2″]F[Bta]Q-NH2
modifications: staple 1-4, 4-11
notes: also called Ac-PL3-Asn-Ala-B5-Asp-Lys-iPrLys-Ala-Phe-Leu-PyrS2-Phe-BztA-Gln-NH2
B8: I-1383 (peptide)
peptide: Ac-[αAllylPro]NA[B5(4)]DT[Lys(iPr)]AFL[PyrS2″]F[Bta]K-NH2
modifications: staple 1-4, 4-11
notes: also called Ac-PL3-Asn-Ala-B5-Asp-Thr-iPrLys-Ala-Phe-Leu-PyrS2-Phe-BztA-Lys-NH2
B9: I-1384 (peptide)
peptide: Ac-[αAllylPro]NA[B5(4)]DT[Lys(iPr)]AFL[PyrS2″]F[Bta]T-NH2
modifications: staple 1-4, 4-11
notes: also called Ac-PL3-Asn-Ala-B5-Asp-Thr-iPrLys-Ala-Phe-Leu-PyrS2-Phe-BztA-Thr-NH2
B10: I-2446 (peptide)
peptide: Ac-[αAllylPro]N[Cha][B5(5)]DQ[Lys(iPr)]AFL[PyrS2″][3Thi][Bta]Q-NH2
modifications: staple 1-4, 4-11; not fully specified; printed as Ac-PL3-Asn-Cha-B5-Asp-Gln-iPrLys-Ala-Phe-Leu-PyrS2-3Thi-BztA-Gln-NH2

Target: T1, full-length beta-Catenin (Uniprot ID …)
Experiment: fluorescence polarization competition; full-length beta-catenin + 5FAM-TCF4 10-53 probe, peptide titrated
Protocol: The plate was incubated protected from light for 60 minutes at 20° C. prior to read. Reads were performed on a CLARIOstar plate reader (BMG Labtech) in duplicate, and data were fitted to a 1:1 binding model with hill slope using an in-house script. All provided concentrations are final concentrations.

Binder | IC50
B1 | 1.44 µM
B2 | 10 µM
B3 | 10 µM
B4 | 6.94 µM
B5 | 2.85 µM
B6 | 1.08 µM
B7 | 2.25 µM
B8 | 1.66 µM
B9 | 10 µM

Target: T2, B-cat-Halo (beta-catenin HaloTag fusion …)
Experiment: cell-based or functional assay

Binder | NanoBRET Abs IC50
B10 | > 20 µM
Ac-[αAllylPro]D[tBuAla][B5(4)]D[Phe(3-COOH)]AAFL[PyrS2″][Phe(2-CF3)][RbMeBztA]Q-NH2 (staple 1-4, 4-11) [I-2458] | 5.9 µM
Ac-[αAllylPro]N[Cha][B5(4)]DT[Lys(iPr)]AFL[PyrS2″]F[Bta]K-NH2 (staple 1-4, 4-11) [I-2450] | > 20 µM
Ac-[αAllylPro]D[tBuAla][B5(4)]D[Phe(3-COOH)]QAFL[PyrS2″][Phe(2-CF3)][SbMeBztA]A-NH2 (staple 1-4, 4-11) [I-2457] | 20.8 µM
Ac-[αAllylPro]N[Cha][B5(4)]DT[Lys(iPr)]AFL[PyrS2″]F[Bta]Q-NH2 (staple 1-4, 4-11) [I-2448] | > 20 µM
Ac-[αAllylPro]D[tBuAla][B5(4)]D[Phe(3-COOH)]QAFL[PyrS2″][Phe(2-CF3)][RbMeBztA]A-NH2 (staple 1-4, 4-11) [I-2459] | 15.1 µM
Ac-[αAllylPro]D[tBuAla][B5(4)]D[Phe(3-COOH)]AAFL[PyrS2″][Phe(2-CF3)][SbMeBztA]Q-NH2 (staple 1-4, 4-11) [I-2456] | 8.1 µM
